{"source": "patent US8030325B2", "about": "“Biosynthetic gene cluster for the production of a complex polyketide” (Wyeth LLC, priority 2004, dated 2011)", "molecules": {"B1": {"name": "GDNF: glial-derived neurotrophic factor, control (protein, UniProt P39905 78-211, looked up)", "Glial cell line-derived …": "SPDKQMAVLPRRERNRQAAAANPENSRGKGRRGQRGKNRGCVLTAIHLNVTDLGLGYETKEELIFRYCSGSCDAAETTYDKILKNLSRNRRLVSDKVGQACCRPIAFDDDLSFLDDNLVYHILRKHSAKRCGCI"}}, "tested_on": "mesencephalic dopanergic neuron cultures", "test": "High-affinity 3H-DA uptake in ventral mesencephalic cultures, with or without MPP+ exposure", "format": "cell-based, rat", "conditions": "for protection against MPP toxicity (3H-DA uptake): pre-treatment 1 hr or 24 hr, MPP+ 1 hr, recovery 24 hr or 48 hr", "experimental": "Ventral mesencephalic cultures were prepared from E15 rat embryos and maintained for […] before experimentation according to the method of Pong et al., J Neurochem.\nCultures were then exposed to 10 μM 1-methyl-4-phenylpyridinium (MPP+) for 1 hr, in the presence of drug. After the 1 hr exposure, media was changed 3×, and fresh drug was added for an additional 24 hr or 48 hr.", "data": [{"molecule": "CC/C1=C\\CC(/C(C)=C/C(C)C(C)O)OC(=O)C2CCCCN2C(=O)C(=O)C2(O)OC(CCC2C)CC(O)C(C)C(O)CC(O)CC(O)/C(C)=C/C(C)CC(C)C1O", "note": "(stereo not drawn) [meridamycin]", "values": [{"measurement": "protection against MPP toxicity (3H-DA uptake)", "result": "partial, but significant protection"}]}, {"molecule": "B1", "values": [{"measurement": "DA uptake in normal mesencephalic dopanergic neuron cultures", "setting": "normal cultures, no MPP+", "result": "enhanced DA uptake"}, {"measurement": "protection against MPP toxicity (3H-DA uptake)", "result": "partial, but significant protection"}]}]}
